Patent US20080138818A1

Key:
[1] = target: T1, Type II IFN (IFN γ) receptor (human) (UniProt P15260); assay: cell-based or functional assay
T1 sequence (looked up) 1: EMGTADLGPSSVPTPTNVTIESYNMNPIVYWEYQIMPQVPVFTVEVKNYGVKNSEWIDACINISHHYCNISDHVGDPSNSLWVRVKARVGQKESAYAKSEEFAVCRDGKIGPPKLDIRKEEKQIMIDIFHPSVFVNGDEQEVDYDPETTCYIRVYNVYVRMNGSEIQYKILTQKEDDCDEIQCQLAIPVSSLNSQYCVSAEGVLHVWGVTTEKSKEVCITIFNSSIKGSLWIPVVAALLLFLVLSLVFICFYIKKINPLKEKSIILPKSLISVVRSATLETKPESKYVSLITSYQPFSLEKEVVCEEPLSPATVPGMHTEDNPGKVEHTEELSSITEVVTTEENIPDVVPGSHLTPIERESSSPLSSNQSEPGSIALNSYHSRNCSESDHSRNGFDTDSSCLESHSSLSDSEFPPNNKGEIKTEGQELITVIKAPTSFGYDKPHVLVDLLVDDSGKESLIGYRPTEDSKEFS
T1 sequence (looked up) 2: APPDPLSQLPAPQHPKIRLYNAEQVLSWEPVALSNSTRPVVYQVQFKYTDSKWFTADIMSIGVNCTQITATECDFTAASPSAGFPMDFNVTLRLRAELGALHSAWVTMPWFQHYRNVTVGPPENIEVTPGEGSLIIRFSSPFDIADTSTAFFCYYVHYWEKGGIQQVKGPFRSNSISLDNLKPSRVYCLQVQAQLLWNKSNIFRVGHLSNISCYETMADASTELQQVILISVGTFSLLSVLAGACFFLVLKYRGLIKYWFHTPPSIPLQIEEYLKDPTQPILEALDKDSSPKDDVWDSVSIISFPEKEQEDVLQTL

[2] = target: Type I IFN receptor (human) (UniProt P17181); assay: cell-based or functional assay
Sequence of UniProt P17181 (P17181 28-557, chain 1 of 2): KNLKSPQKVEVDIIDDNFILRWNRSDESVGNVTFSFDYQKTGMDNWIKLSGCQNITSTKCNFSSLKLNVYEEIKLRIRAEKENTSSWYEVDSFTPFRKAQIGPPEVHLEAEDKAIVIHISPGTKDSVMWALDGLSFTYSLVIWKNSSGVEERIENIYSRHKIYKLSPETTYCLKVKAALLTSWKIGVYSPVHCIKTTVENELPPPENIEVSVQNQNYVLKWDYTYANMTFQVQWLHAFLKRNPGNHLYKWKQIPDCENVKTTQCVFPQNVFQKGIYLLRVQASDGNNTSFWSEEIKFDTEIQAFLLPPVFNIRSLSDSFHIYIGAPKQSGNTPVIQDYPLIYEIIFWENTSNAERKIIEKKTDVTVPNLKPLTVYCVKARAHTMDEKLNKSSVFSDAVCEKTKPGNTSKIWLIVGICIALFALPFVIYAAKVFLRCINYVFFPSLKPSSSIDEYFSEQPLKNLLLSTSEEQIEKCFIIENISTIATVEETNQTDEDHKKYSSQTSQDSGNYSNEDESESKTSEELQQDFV
Sequence of UniProt P17181 (P48551 27-515, chain 2 of 2, further chain): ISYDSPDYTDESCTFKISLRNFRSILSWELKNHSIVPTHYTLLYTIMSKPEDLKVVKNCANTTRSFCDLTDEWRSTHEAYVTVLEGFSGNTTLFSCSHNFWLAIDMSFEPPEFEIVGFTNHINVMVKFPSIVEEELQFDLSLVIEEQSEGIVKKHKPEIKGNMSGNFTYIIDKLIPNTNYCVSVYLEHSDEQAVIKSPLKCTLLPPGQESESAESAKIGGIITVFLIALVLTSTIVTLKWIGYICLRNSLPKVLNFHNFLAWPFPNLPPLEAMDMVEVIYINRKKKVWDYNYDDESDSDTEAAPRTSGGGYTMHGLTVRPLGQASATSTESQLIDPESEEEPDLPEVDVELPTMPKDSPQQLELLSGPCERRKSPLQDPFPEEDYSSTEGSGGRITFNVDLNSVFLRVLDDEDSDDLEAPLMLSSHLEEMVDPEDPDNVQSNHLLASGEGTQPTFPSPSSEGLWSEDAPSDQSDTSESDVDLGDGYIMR

RLU (Relative Luciferase Units): Fold Increase, GAS-Luc reporter in U266R cells Clone 2 (UIG2), IFNγ 1.0 IU/ml [1] | RLU (Relative Luciferase Units): Fold Increase, GAS-Luc reporter in U266R cells Clone 2 (UIG2), IFNγ 100 0 IU/ml (so in the source) [1] | RLU (Relative Luciferase Units): Fold Increase, GAS-Luc reporter in U937 cells, IFNγ 10.0 IU/ml [1] | RLU (Relative Luciferase Units): Fold Increase, GAS-Luc reporter in U937 cells, IFNγ 100 0 IU/ml (so in the source) [1] | fold increase in RLU, IRF-Luc reporter in U937 cells Clone #2 (IRF-Luc2), IFNγ [1] | RLU (Relative Luciferase Units): Fold Increase, GAS-Luc reporter in U937 cells, IFNα 1.0 IU/ml [2] | RLU (Relative Luciferase Units): Fold Increase, GAS-Luc reporter in U937 cells, IFNα 100.0 IU/ml [2] | Substance
1.5 fold | 9 fold | 1.25 fold | 1.5 fold | 1.1 fold |  |  | human interferon gamma (IFNγ) (from UniProt P01579 24-166) (ligand)
 |  |  |  |  | 1.5 fold | 3 fold | human IFNα (ligand)
